B2: Kog1 (Kog1-TAP) in the TOROID (natural protein, S. cerevisiae)
chain: MPEIYGPQPLKPLNTVMRHGFEEQYQSDQLLQSLANDFIFYFDDKRHKTNGNPIPEEDKQRDVNRYYQPITDWKIMKDRQKTVSAALLLCLNLGVDPPDVMKTHPCARVEAWVDPLNFQDSKKAIEQIGKNLQAQYETLSLRTRYKQSLDPCVEDVKRFCNSLRRTSKEDRILFHYNGHGVPKPTKSGEIWVFNRGYTQYIPVSLYDLQTWLGAPCIFVYDCNSAENILINFQKFVQKRIKDDEEGNHDVAAPSPTSAYQDCFQLASCTSDELLLMSPELPADLFSCCLTCPIEISIRIFLMQSPLKDSKYKIFFENSTSNQPFGDSKNSFKSKIPNVNIPGMLSDRRTPLGELNWIFTAITDTIAWTSLPRPLFKKLFRHDLMIAALFRNFLLAKRIMPWYNCHPVSDPELPDSITTHPMWKSWDLAMDEVLTKIVIDLKNAPPATALESQMILQQQETLQNGGSSKSNAQDTKAGSIQTQSRFAVANLSTMSLVNNPALQSRKSISLQSSQQQLQQQQQQQQQFTGFFEQNLTAFELWLKYASNVRHPPEQLPIVLQVLLSQVHRIRALVLLSRFLDLGPWAVYLSLSIGIFPYVLKLLQSPAPELKPILVFIWARIMSIDYKNTQSELIKEKGYMYFVTVLVPDWGVNGMSATNGSAMINSGNPLTMTASQNINGPSSRYYERQQGNRTSNLGHNNLPFYHSNDTTDEQKAMAVFVLASFVRNFPLGQKNCFSLELVNKLCFYIDNSEIPLLRQWCVILLGLLFADNPLNRFVCMNTGAVEILLKSLKDPVPEVRTASIFALKHFISGFQDAEVILRLQQEFEEQYQQLHSQLQHLQNQSHLQQQQSQQQQQHLEQQQMKIEKQIRHCQVMQNQLEVIDLRKLKRQEIGNLISILPLINDGSSLVRKELVVYFSHIVSRYSNFFIVVVFNDLLEEIKLLEKSDINTRNTSDKYSVSQGSIFYTVWKSLLILAEDPFLENKELSKQVIDYILLELSAHKELGGPFAVMEKFLLKRSSKAHQTGKFGFNSSQVQFVKSSLRSFSPNERVDNNAFKKEQQQHDPKISHPMRTSLAKLFQSLGFSESNSDSDTQSSNTSMKSHTSKKGPSGLYLLNGNNNIYPTAETPRFRKHTEPLQLPLNSSFLDYSREYFQEPQMKKQEADEPGSVEYNARLWRRNRNETIIQETQGEKKLSIYGNWSKKLISLNNKSQPKLMKFAQFEDQLITADDRSTITVFDWEKGKTLSKFSNGTPFGTKVTDLKLINEDDSALLLTGSSDGVIKIYRDYQDVDTFKIVSAWRGLTDMLLTPRSTGLLTEWLQIRGSLLTTGDVKVIRVWDAHTETVEVDIPAKTSSLITSLTADQLAGNIFVAGFADGSLRVYDRRLDPRDSMIRRWRAGNDKQGVWINNVHLQRGGYRELVSGATNGVVELWDIRSEDPVESFVDQNVTSQYGSQQKPTTMTCMQVHEHAPIIATGTKQIKIWTTSGDLLNSFKNSHNNGVTSTLAATGIPKSLSYSSTSDAFLSSMAFHPHRMMIAATNSHDSIVNIYKCEDERIDYF
notes: Kog1, S. cerevisiae, expressed as KOG1-TAP; source: S. cerevisiae KOG1-TAP ∆tor1 cells grown PDS, purified as TOROID

Tests used:
Assay in all cases: cryo-EM structure; TOROID filaments purified from KOG1-TAP ∆tor1 cells grown PDS (subunits co-purified from yeast); helical reconstruction, then signal subtraction and single particle analysis, 3.87 Å
[1] = molecular target: B2; conditions: both partners purified
[2] = molecular target: T1, Tor2 in the TOROID (S. cerevisiae (endogenous in S. …, UniProt P32600 1-2474)); conditions: both partners purified
T1 construct: Tor2, S. cerevisiae; source: S. cerevisiae KOG1-TAP ∆tor1 cells grown PDS, purified as TOROID

[3] = molecular target: the molecule itself

T1 sequence (P32600 whole entry): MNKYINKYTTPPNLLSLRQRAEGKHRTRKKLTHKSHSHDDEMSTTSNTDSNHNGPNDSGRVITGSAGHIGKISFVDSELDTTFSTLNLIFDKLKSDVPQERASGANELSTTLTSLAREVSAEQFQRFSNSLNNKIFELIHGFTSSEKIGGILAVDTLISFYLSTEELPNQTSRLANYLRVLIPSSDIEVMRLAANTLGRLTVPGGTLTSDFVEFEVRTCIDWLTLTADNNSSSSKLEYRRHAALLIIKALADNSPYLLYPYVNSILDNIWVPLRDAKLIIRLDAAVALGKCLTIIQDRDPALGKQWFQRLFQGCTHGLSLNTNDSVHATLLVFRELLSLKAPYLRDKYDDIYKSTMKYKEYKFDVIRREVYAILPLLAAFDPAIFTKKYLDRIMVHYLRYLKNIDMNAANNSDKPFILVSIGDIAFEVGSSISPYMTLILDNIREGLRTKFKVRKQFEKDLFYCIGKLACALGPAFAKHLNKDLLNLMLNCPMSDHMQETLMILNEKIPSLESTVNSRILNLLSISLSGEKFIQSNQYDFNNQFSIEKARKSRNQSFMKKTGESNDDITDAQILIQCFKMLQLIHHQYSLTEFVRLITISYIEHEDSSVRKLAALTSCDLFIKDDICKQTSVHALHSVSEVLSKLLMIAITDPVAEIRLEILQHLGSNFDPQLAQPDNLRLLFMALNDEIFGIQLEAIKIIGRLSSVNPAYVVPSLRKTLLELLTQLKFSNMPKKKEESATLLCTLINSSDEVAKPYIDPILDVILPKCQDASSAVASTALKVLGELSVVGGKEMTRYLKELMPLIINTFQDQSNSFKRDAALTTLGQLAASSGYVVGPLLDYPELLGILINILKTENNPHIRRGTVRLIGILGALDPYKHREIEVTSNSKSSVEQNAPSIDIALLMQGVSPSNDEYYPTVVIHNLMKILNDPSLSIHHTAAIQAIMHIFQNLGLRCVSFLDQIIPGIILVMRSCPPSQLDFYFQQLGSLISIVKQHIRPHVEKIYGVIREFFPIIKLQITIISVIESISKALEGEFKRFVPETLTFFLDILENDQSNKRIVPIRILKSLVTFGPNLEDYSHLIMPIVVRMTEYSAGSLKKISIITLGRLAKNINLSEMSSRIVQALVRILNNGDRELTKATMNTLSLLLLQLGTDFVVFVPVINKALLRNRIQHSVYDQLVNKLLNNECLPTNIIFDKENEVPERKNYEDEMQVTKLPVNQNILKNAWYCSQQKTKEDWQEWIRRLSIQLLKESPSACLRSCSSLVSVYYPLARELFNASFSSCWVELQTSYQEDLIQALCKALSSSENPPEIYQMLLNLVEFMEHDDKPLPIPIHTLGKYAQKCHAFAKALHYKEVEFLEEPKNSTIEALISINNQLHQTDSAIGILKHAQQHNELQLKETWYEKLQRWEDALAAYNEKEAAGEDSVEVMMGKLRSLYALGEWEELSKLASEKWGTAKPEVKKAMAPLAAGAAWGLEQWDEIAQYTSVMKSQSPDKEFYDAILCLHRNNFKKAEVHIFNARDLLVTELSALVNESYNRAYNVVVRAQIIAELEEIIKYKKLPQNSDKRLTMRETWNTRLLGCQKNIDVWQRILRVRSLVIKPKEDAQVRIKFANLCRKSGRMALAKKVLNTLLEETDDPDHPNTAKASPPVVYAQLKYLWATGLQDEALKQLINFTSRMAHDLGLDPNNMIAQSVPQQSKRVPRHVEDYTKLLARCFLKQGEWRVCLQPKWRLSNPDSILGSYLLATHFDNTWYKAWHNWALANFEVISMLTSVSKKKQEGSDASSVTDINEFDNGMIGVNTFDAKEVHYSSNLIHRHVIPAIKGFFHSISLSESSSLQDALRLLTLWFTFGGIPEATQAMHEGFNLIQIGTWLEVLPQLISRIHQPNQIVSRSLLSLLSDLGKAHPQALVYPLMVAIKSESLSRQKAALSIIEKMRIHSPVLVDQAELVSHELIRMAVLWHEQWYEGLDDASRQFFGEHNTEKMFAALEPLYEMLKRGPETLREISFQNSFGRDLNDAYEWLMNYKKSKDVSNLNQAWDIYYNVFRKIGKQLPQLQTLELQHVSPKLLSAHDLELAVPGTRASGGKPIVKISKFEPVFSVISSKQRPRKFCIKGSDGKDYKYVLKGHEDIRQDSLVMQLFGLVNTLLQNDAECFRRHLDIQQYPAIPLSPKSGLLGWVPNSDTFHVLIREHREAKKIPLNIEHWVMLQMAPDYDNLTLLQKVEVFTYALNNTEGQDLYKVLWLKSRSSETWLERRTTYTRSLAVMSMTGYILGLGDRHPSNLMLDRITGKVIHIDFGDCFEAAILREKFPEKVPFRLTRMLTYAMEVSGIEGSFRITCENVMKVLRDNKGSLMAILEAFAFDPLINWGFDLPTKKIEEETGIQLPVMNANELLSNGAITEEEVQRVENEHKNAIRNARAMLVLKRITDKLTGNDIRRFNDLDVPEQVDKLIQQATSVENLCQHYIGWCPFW

B1: Lst8 in the TOROID (natural protein, UniProt P41318 1-303, looked up)
chain: MSVILVSAGYDHTIRFWEALTGVCSRTIQHSDSQVNRLEITNDKKLLATAGHQNVRLYDIRTTNPNPVASFEGHRGNVTSVSFQQDNRWMVTSSEDGTIKVWDVRSPSIPRNYKHNAPVNEVVIHPNQGELISCDRDGNIRIWDLGENQCTHQLTPEDDTSLQSLSMASDGSMLAAANTKGNCYVWEMPNHTDASHLKPVTKFRAHSTYITRILLSSDVKHLATCSADHTARVWSIDDDFKLETTLDGHQRWVWDCAFSADSAYLVTASSDHYVRLWDLSTREIVRQYGGHHKGAVCVALNDV
notes: Lst8, S. cerevisiae; source: S. cerevisiae KOG1-TAP ∆tor1 cells grown PDS, purified as TOROID
binding result [1]: binds | binding result [2]: binds

B2
binding result [3]: binds | binding result [2]: binds
